From patent US20250257143A1 (FORTE SUBSIDIARY, published 2025)

T1: huCD122-HIS (ARCO Bio | Cat No. CD2-H5221) (human, UniProt P14784 27-239)
T1 construct: Bought analyte of the BLI assay; also called human CD122; not shown: His tag
T1 sequence (looked up): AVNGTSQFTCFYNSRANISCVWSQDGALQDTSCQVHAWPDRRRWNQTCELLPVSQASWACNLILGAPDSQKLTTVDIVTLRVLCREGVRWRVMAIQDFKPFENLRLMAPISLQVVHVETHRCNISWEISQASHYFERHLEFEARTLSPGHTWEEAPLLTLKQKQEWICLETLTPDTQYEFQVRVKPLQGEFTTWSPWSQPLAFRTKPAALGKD

B1: G15 (antibody, human IgG4 S228P, kappa)
heavy: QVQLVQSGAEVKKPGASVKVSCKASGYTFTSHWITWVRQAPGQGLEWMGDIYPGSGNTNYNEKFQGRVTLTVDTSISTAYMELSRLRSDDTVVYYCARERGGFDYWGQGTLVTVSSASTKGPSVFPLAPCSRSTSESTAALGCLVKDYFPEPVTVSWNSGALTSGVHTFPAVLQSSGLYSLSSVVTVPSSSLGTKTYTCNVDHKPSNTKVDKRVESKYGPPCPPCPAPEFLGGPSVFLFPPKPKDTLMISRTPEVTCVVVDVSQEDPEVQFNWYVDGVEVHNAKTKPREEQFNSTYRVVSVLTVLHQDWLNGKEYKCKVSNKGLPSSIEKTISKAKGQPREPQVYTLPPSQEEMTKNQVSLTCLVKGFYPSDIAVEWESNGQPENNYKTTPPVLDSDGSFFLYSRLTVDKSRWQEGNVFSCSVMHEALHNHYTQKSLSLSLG
light: DIQMTQSPSSLSASVGDRVTITCRASQDISNFLNWYQQKPEGTLKLLIYYTSGLHSGVPSRFSGSGSGTDFTLTISSLQPEDVATYYCQQDNNHPYTFGQGTKLEIKRTVAAPSVFIFPPSDEQLKSGTASVVCLLNNFYPREAKVQWKVDNALQSGNSQESVTEQDSKDSTYSLSSTLTLSKADYEKHKVYACEVTHQGLSSPVTKSFNRGEC
notes: Humanized, human IgG4 (S228P), kappa
B2: G5 (antibody, human IgG1, kappa)
heavy: not shown
light: B1 light
notes: Humanized, human IgG1 (G1M17), kappa
B3: G8 (antibody, human IgG1, kappa)
heavy: not shown
light: B1 light
notes: as for B2
B4: G18 (antibody, human IgG4 S228P, kappa)
heavy: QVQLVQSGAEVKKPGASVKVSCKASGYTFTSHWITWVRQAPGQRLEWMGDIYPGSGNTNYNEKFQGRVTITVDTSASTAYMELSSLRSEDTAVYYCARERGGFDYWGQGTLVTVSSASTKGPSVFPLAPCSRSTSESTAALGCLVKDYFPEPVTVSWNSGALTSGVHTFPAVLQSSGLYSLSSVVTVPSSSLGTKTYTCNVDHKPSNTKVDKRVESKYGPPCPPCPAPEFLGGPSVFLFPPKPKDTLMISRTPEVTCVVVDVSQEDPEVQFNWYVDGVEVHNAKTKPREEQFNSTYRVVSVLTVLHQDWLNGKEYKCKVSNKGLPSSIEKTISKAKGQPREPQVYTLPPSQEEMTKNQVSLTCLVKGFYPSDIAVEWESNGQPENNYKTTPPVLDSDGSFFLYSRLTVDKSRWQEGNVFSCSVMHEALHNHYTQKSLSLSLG
light: B1 light
notes: as for B1
B5: G2 (antibody, human IgG1, kappa)
heavy: not shown
light: B1 light
notes: as for B2
B6: G12 (antibody, human IgG4 S228P, kappa)
heavy: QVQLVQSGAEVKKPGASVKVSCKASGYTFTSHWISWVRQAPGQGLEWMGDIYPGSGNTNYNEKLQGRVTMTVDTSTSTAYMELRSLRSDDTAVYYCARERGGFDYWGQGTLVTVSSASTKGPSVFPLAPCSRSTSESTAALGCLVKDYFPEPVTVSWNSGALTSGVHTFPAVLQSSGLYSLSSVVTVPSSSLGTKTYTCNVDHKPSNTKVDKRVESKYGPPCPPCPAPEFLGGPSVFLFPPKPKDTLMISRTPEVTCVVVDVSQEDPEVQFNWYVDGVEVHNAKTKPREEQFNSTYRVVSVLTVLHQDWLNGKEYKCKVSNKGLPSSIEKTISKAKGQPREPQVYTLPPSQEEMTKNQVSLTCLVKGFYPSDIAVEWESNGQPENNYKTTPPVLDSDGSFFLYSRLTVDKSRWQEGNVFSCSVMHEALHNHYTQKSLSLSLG
light: B1 light
notes: as for B1
B7: G1 (antibody)
heavy: not shown
light: DIQMTQTTSSLSASLGDRVTINCRASQDISNFLNWYQQKPDGTLKLLIYYTSGLHSGVPSRFSGSGSGTDYSLTISNLEEEDIATYFCQQDNNHPYTFGSGTKLEIKRTVAAPSVFIFPPSDEQLKSGTASVVCLLNNFYPREAKVQWKVDNALQSGNSQESVTEQDSKDSTYSLSSTLTLSKADYEKHKVYACEVTHQGLSSPVTKSFNRGEC
notes: Chimeric: mouse parental variable domains in human IgG1 (G1M17 allotype), kappa; also called M5 IgG1 parental; G1 mouse parental IgG1 chimera
B8: G11 (antibody, human IgG4 S228P, kappa)
heavy: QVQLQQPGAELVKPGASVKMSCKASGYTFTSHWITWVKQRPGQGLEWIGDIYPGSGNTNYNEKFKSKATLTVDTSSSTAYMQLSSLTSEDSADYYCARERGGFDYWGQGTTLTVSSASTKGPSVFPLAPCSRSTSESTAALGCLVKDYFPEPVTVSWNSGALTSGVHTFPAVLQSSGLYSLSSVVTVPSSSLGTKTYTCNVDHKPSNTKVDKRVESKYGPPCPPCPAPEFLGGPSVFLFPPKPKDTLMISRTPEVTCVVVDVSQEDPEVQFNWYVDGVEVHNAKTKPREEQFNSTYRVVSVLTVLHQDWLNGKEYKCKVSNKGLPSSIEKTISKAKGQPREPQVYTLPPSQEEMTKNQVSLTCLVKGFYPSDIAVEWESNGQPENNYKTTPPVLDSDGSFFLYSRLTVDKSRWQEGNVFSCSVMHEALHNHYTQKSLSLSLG
light: B7 light
notes: Chimeric: mouse parental variable domains in human IgG4 (S228P), kappa; also called M5 IgG4 parental; G11 mouse parental IgG4 chimera

target: T1, huCD122-HIS (ARCO Bio | Cat No. …); experiment: BLI Octet; reference: parental chimeras (G1, G11)
Experimental: (§1) Based on Bio-Layer Interferometry (BLI), the Octet® BLI system is a fluidics-free instrument platform that enables real-time, label-free analysis for the determination of kinetics, affinity and antibody/protein quantitation. Binding experiments were performed on Octet HTX at 25° C. The analyte used was huCD122-HIS (ARCO Bio | Cat No. CD2-H5221) at a molecular weight of 25.4 kDa. The antibodies were loaded onto Anti-human Fc capture (AHC) sensors. The loaded sensors were dipped into serial dilutions of huCD122-His (Starting at 20 nM, 1:3 dilution, 4 points). Reference sample well (buffer) was used for data analysis. Kinetic constants were calculated using a monovalent (1:1) binding model. The assay buffer used was PBS with 0.1% BSA, […], pH 7.2. The regeneration buffer used was 10 mM Glycine buffer (pH 1.7). The four concentrations of huCD122-His used to determine anti-CD122 antibody binding and dissociation properties were 0.0 nM, 2.2 nM, 6.7 nM, and 20 nM. Sensorgram plots to display antibody binding characteristics were generated. The mouse parental chimera configurations in both IgG1 and IgG4 backbones (M5 IgG1 parental and M5 IgG4 parental) were tested as well as each combination of the humanized 3 HC and 3 LC variants in either an IgG1 or an IgG4 backbone.

| fold change in KD against the parental chimera | Binder |
| --- | --- |
| < 3 fold | B1 |
| < 3 fold | B2 |
| < 3 fold | B3 |
| < 3 fold | B4 |
| < 3 fold | B5 |
| < 3 fold | B6 |

target: T1, huCD122-HIS (ARCO Bio | Cat No. …); experiment: BLI Octet, antibody captured on AHC sensor, huCD122-His analyte, 1:1 fit
Experimental: as §1

| Kd | Response | koff | kon | Binder |
| --- | --- | --- | --- | --- |
| 1.37 nM | 0.337 | 0.000639 s⁻¹ | 466000 M⁻¹ s⁻¹ | B1 |
| 1.18 nM | 0.377 | 0.000581 s⁻¹ | 494000 M⁻¹ s⁻¹ | B2 |
| 0.943 nM | 0.389 | 0.000425 s⁻¹ | 450000 M⁻¹ s⁻¹ | B3 |
| 0.98 nM | 0.315 | 0.000453 s⁻¹ | 462000 M⁻¹ s⁻¹ | B4 |
| 0.831 nM | 0.372 | 0.000409 s⁻¹ | 492000 M⁻¹ s⁻¹ | B5 |
| 1.08 nM | 0.354 | 0.000488 s⁻¹ | 451000 M⁻¹ s⁻¹ | B6 |
| 0.727 nM | 0.381 | 0.0004 s⁻¹ | 549000 M⁻¹ s⁻¹ | B7 |
| 0.795 nM | 0.326 | 0.000423 s⁻¹ | 532000 M⁻¹ s⁻¹ | B8 |

target: T1, huCD122-HIS (ARCO Bio | Cat No. …); experiment: BLI Octet, antibody captured on AHC sensor, huCD122-His analyte, 1:1 fit; second batch
Experimental: as §1

| Kd | Response | koff | kon | Binder |
| --- | --- | --- | --- | --- |
| 1.33 nM | 0.312 | 0.000647 s⁻¹ | 485000 M⁻¹ s⁻¹ | B1 |
| 1.43 nM | 0.334 | 0.000646 s⁻¹ | 452000 M⁻¹ s⁻¹ | B6 |
| 0.866 nM | 0.327 | 0.000491 s⁻¹ | 567000 M⁻¹ s⁻¹ | B8 |
